For the data set, the system named is HEK293 cells. The format is cell-based, human. Conditions: luminescence from secreted Gluc in supernatant 24 hours after transfection of HEK293 cells; circular RNA encoding Gluc with the named IRES (UTR truncated to 675 nt).

B1: Grusopivirus B (nucleic acid)
DNA: GCCATCCGTAGGTTCTGGTAAGGTTCCATCAACTGTTGGGGCGCTAGTTGCTATGACCGCATTCACGGACGGATGATTTATAGTATCACCCAATCCGGGCACAACTTCTTTAGCCACTTCTTCCACATTACTAAGGGCTCTCTTGCCGAGTTTCAACGTCTAGTCCACGACACGGACCTTCCTACTTTTCTATCTTCTTATTTTCTCTACTAAATTGGTATCTGGTACTGAAGATATGCGGATTGTGATTTTGTGCCTGTCTAAACTAACCCTATTCTAGGGTTAGGTGGGTACCATATACTAATGGTGAACAGGATTACCTATGTATCCATTAGTCCCTATGGATCTGGCGACCCACAAACTCATGTTCATAGAGAGGCTAAGCTGAGTGCTCGCCGAATAAGCATTGCTTCAGGTGCCGACTATTGTCTGGAAACCACTCAGTGATAGCTATAGGGGGGGGCCCCGTAGCATCTGCCTTACTGCCTGATAGGGTGGCGGCTGGTCCATGAACATGCAGTAACCAGTTGACTTGAC
modifications: Grusopivirus B
As to B1, the Expression is 2.12E+05.

B2: Grusopivirus A (nucleic acid)
DNA: TGCCTGAGTAGGATTGTGAATTTAGGTATGAGAGGGTTAGCCAACCCATTCTGAACCATAATAGATACGTCAATCTGAATCCATCTAAATCTATCTCTTAGGCAGTGGTGCTGAAATATTGCAAGCTACTAGGGATAGACGTGATCTGATTCAAGAACCTATCTAATGTGGTGATGAGAAGGCTAGGTTTATCCATAGTAATCCCTTGTTCTGAACAGGCAATGCACATGCTCTAGTAGGATCTCGGGCTCTGCGATTGGCTCTAAACCGACCAATCCAGGTAGAGGCACTAAGTGTAGGACTTGCCAAAATGTATTACATGCTGGTACCGACTCACTAGTCTGGAAACTCCACACTGAAAGTGACTGGGGGGGGCCCCATCACATTTGTGCTACTGCTTGATAGAGTTGCGGCTGGTCAACTTGGATTGGTATAACCAGTTGAA
modifications: Grusopivirus A
The molecule B2 showed an Expression of 1.09E+05.

B3: Aalivirus (nucleic acid, listed as Aalivirus sp.)
DNA: TTGAAAGGGGGTGCTCAGGGTAGCTCCCTGAGCTCTTCCCTCCACCCTCTTTCAACGTCTGGCCCACGATACGGGCCACCTTTCAATCTTAACTAACTATCCCTTTAATCTATTTGGATTTTCTGGTTTAGAATAATTTGGAACACATAATTGGATTATCTTTTAGGATTGTGGATAGGATTTGTTCGGGATATCACTCCCTTCCTGTGCTAACACATATTCTAATTCCCTCCTTTGTCTATTATCTCTTGGAGGTGGTGCTGAAATATTGCAAGCCACTTGAGTGTATAGATGAAGTAGGCTCAAGATGAATGTTGTGTTACTCAAGGCAAGTGTAGCTATCACTAAGATATTGGTAACGTGAAACGGATTACCGGTAGTAGCGTGATCTTCCGTCTTAGTGCTCTAGTGACTAGAGGACAACGACATGGCATCACATATCTTAACCCTCCAGTTTTGGCATCCGGGACAGAATGGGCTGGATATCCGCTTTCTTTCTGGGGTATGTGATGGGTGGTATTGGGGTAACCACCTTGACCATGACGCTCGATAAGAGTGACCGCCTGATCATTGAAACCTCTAGTATAAAATTCAGGCTGAAATC
B3 returned an Expression of 2.65E+05.

B4: Didelphis aurita HAV (nucleic acid)
DNA: TCTTTGGTCTGGGGAACTAAAATACCAGACCCGCGTTTGCCTAGCGATATAGGCTTTAATTGTTGTTTGTCATTGTGCGTTTGATATGTGTTTTAATGTAAATAATAATTCTAGCAGGTTCTAGTTCTTGATCATGTCCTCTTTAAGGCACTCATTTCAACTTGCTATCTTTCTTTTCTTCCTTGGTTCTCCCTACACCAAATGCACTGGCCGCTGCGCCCGGCGGGGTCAACCACATGATTAGCATGTGGCTGTAGGTGTTGAAGGCTGGGACATGAACATCAATGGAATAGTGCGCATGCTTACTGGGGTCCATTGAAGTAGTGGGATCTTTCTATTGGGGTAGGCTACGGGTGAAACCCCTTAGGTTAATACTCATATTGAGAGATACCTTGGATAGGTTAACTGTGCTGGATATGGTTGAGTTTAACGACAAAAAGCCATCAACAGCTGTGGACAGAACCTCATCCTTAGATTGCTCACTATGGATATGTGCTCTGGGCGTGTTTCTTGCATGATGGCCATTGGTCAATTCATGCCTGGGCCAATGTAGGATTAGCCTTAAATTACTTTTTAAAAGTAGCCTCATTTAGCTGGACTAATGGTGGGGCGTATGATCCTGCATTTGGCCTCTGGGGTAATCAGGGGCATTTAGGTTTCCACATAATAGCAAAT
modifications: Hepatovirus A
B4 displayed an Expression of 1.38E+05.

B5: Tremovirus B (nucleic acid)
DNA: TTCAAATGGCCCCTGGGTTGATACCCAGTGGTCATTTGGACACTTTGGTAAGGAGGTGTAATTATCCTTCCCATGTGGAACCTAGTGCTTAGGTTTACTTTATATGTTCTTTGTTTGTCCTTTGTACTTTCTATCGGGCAATCTTGTTGTTCAATACAATATGTATTTGAACTGCCTAAGATAAATTCAGTTTTCAACCAACCCCTCTCTTGGGGTTGTGTCTTTCTTTCTTTCTTATATCCTCTTAAGCTGACTTACTTGCTAATCCGACTCCTCGTCAACGGGAGGGTAAAGCAGTATCACTAGGGTATTGTGATGTAGGAGAAAAAGTAAGTAGAGATAGTGCATGTAACGAAAGTGACTTGGTACTTTAAACTCTCTTAATCCCAAAGTGTGGTATTGGTCATGTTGGAGTAGGCTACGGGTGAAACTCCTTCACATTTAGTAATGTGTTCACACGCTAACGCTACGGTAGATGACAGACTAGGTCTTATTCTCAACGTAGGGGGACGGGTGTATGTTCATGATTAGCCACATATTAAGGTTTTGAGGGGCTGAGTCATATAAGTATGTGCATTAATTTCTGGTACTGGTCCCTGGGGACTGGCCCTTTTCTAGGTTGATTTTAGTTTCCCCAATTTTTAAAAACTAATGAGATTTACGAC
modifications: Tremovirus B
The molecule B5 gave an Expression of 1.31E+05.

B6: Falcovirus A1 (nucleic acid)
DNA: TAAAAGGGGACGCGGTGTGGCAGCTTTGGCTGTCATGCCGTGTTCTCCTTTTACCCCAAGGACTAGCCTTGGGGGTTTTCCAAATTCCTTTCCCTGTAGGCTTTACTTCTCTTTATCTATCTTTTCTGTAACTAAGTTTTGCCTATTCTAAAAATATTTTAGAATGTGTTTGGATGTAACTAAGTTTGTGCCTGCCCTAAAAATATTTTAGGGCTTGTTTGGATAACCTCGTCCCTTGTGTTCAGTGCCGCACAATTTGCTAGGCACTGTTCACTTCCTTTGTTTGTCCATTATGTATGCTAAGGTATGAATTCCATCATATGCTTAGCCTCTACATGCATAATCTTATTCCCTCCCTGGTGCAAACTACGCCCCCAACATATGTGAATCTTTTAAGCATATTCCTGACCCCACACATATATATGTGTTCTCGTGAATTCCCCCACCGTGAGGTGGTCACTTGGACGTGGTGTGTGTCACACAGCATATATATGATGCAGGATGTTGTTTTTAAGATAAGCATATGTCCTTAGTGCTTTGCATCATTTCCTCCACACCCCGTGAATGCGGCTAATCTTAACCCTGTTGGGTCCGTGGGTAAACCAACCCATTAACCACAGGACGGAACCGACTACTTTCGGGAGTGTGTGTTTCTTTTTCTTCTTTTGTCACT
For B6, the Expression worked out at 1.48E+05.

B7: Turkey Gallivirus M176 (nucleic acid, listed as Gallivirus sp.)
DNA: CCACTCGCACTTCCTGGATAGTGCGTTAGATATGCCCGACATATCGCTTCCAGGACCAAAGCCCCCCTTTTCTCTTTCCCAACCAGCTTCGCCACTCAAGCTGTAATTCCATGTCCGGTCTTTCCGGCCTTAGTATCATGGAAATGTGGTCGTGCTCAAATGAAATTGAGTTGACATTGATCAATGAAAGTTGCACTGAACTTTGCTAAACTGGCTAGCGCCACCTGGTGTGTGCCGTTGGTCTCCTCACATGGTAACATGTGCCAACGGGCCCGAAAGGCTAGTGGGCAATTACCGCTCCAAGGGAGGGGTACCCACCCCGACCTGAACAGCGGTAATGAAGCTCACCTCCCAGGCTCTGACCCCGAGAAGTTTAGTTATTTAGTAGGTGTAATTAGTACTTGTGATTGGTCAATTTGATAGTAGTTTGAAACGTTATGGATGAATGAGTAGACCCCCTGAAGGTACCCCATTACATGGGATCTGATCAGGGCCACATTCTGCGTGTCTCCCCGCACTTGTGGTTAAAACCATGAAAGTTCATCCCAAACAATCTTTTCCTCTTCTTTTTCTTTTAGTGGTGACAACCTACTGGATTGGTGATTACCAATCTGTACTAGTGTTGTATTAAGACTTGTTGTGTGGAGAAAATGGACTCTTTCAAGAAGATTTTTG
The molecule B7 had an Expression of 4.37E+05.

B8: Yancheng osbecks grenadier anchovy picornavirus (nucleic acid)
DNA: CCTTAGGGTCTGGAATGCGTCCTTTCTGGGCACTTCCACAATCCTAAGGTAATTTTCAACGCCAGCGATGGAGCGATATCCAAAGAACCTTTATGTTTTAGTTCGTCTTGTATGTTTATAAAATATAAAATTGGGATTAGCAACCCACAAAAACATTTTTGTTATTCTCACCACATGAGAGGGTGGTTAAACCTCTTCGTAACCTATCTTGCTTGATTGGCTACTTGGGCTAGATTTAGGACAACCTCTTTAGCAAGCCTAAATTACTCCTCGTACTTGCACCTGGTAACAGGCGTACCTGGAGGTTACGGTGGCGCTAACTTGGACTTCTCGTTAATTCGTGCAAGTTTAAATGATGCCTATTTTGAATACAAGAAAGTATGATAGTAACTTAGGGCGTGAAGTTCCGCTTAACATAAGGCAGTATAAGTACTAAGATAAGGTGTAAGACCTACCTTAATAACTGTTGTCTTTTCTCATGGTCTTTCCGTGGGAGCCCTTGCTAGGGGTAAAGTTAAGTATTCTCAAATAATTTTTCATTCAAACTCTTTCTCTCTGTTTT
As to B8, the Expression was 1.57E+06.

B9: Rabbit Kobuvirus (nucleic acid, listed as Kobuvirus sp.)
DNA: GGGCTATAAATATGGGCATTCCTCTTCCCCCTTCCCCTTTTGAAGATGAGTGCGCATATTCTTGACTCCGCCTGGATTGGCCGCCCAAGGCGTGAACAAGCAGCTAGGCCACCATGACACTGCGGTGGTGTCCGAACCCGCGGGTGCCTTCACGGGCACCTGTGGTATGTAGGACTCCCACCGTGGTCTTCCCTTTCCCCCTCAATCTTTCCCCCTGGTTCGACTAACGGGACCAGTGCTGGAACCTGTCCGGTGAACGGTATAGCAGGCCCCCCCGGCAGAAACACCCGGTGCTTACCCCTTAAGGCTAGCCCCCTTCCATGAATTTGGTTGGGGCAACTAGTGGGTGTACAGTTGGCGTGAACCCTCCGGTCTAGGAGTGCTCTTGCCCAATCCTCTGTGTGTGCCTTGCAGTAGGGACTGGCAATCCTTCGCGTAGGTGATCCGCTGTGCCATGCCATCCTGGCGACAGGAGGCCCAGTGTGCGCAACCTACGTCCCTTCTGGGTGCTGCATTGCATTACCTTTGGAGTAAGCTTGGTGTGCCGAAACCCCAGGGTTTACGTACCACTCGTGGTGTGAGGAATGTGCCGCAGGTACCCCATCCTTGAGGTGGGATCTGAGCGGTAGCTAATTGTCTAGCACCACTTTCTTCCTTTTTTCTTTGCTGGTCACG
The molecule B9 registered an Expression of 3.73E+07.
